In publication doi:10.1101/2025.11.11.687766 one finds stoichiometry N and stoichiometry N (RT per effector (4:4)) data, which are given here for one substance.

The target of test [1] is Retron-Eco8 effector (OLD-family nuclease), untagged, of the Retron-Eco8^ATP construct (Escherichia coli). In words: cryo-EM structure.
For test [2], the target named is Retron-Eco8 reverse transcriptase (RT) (Escherichia coli). In words: cryo-EM structure.

For “Retron-Eco8 effector (OLD-family nuclease), untagged, of the Retron-Eco8^ATP construct (enzyme)”, the stoichiometry N in test [1] was 4. In test [2], this substance returned a stoichiometry N (RT per effector (4:4)) of 1.

A word on the stoichiometry N: it is a count of units in the complex or per binding partner.
